Source: paper PMC3039359

Tests used:
Rrp47 ΔC = target: T1, Rrp47 ΔC (Saccharomyces cerevisiae, UniProt P38801 1-120, del121-184); experiment: filter binding
T1 sequence: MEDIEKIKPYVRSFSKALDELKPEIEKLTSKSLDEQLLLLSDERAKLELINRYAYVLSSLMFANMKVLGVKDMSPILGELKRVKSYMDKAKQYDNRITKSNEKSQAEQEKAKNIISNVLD

Rrp47 = target: T2, Rrp47 (Saccharomyces cerevisiae, UniProt P38801 1-184); experiment: filter binding
T2 sequence: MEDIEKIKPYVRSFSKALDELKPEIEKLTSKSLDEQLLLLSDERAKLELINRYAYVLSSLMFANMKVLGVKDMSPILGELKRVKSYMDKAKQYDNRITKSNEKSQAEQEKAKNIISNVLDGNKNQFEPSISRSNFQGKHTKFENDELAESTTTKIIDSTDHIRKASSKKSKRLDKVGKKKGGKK

B1: SL-AU RNA (structured_RNA)
RNA: GGGUUUCCUUCUCAAACAUUCUGUUUGGUAGUGAGUAAUUAAAAAUGAAUU
binding result (Rrp47 ΔC): no binding | Kd (Rrp47): ~1000 nM
